Test results taken from US12281340B2, “Method of producing N-acyl-amino group-containing compound” (AJINOMOTO CO., INC., priority 2018, dated 2025).

Columns and labels:
Format in all cases: biochemical
[1] = Synthesis of N-caprinoyl-amino acid derivative, N-caprinoyl-D-amino acid and N-caprinoyl-peptide using purified acylamino acid synthetase, UPLC-MS detection; parameters: key: +: Detected; −: Not detected; settings: +ATP
Method in brief: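 Purified enzyme (50 μg/mL) was incubated with 5 mM sodium caprate, 5 mM amino acid derivative, D-amino acid or peptide, 10 mM ATP, 10 mM MgCl2 and 1 mM DTT in 50 mM Tris-HCl, pH 8.0, for 24 h at 25 °C. After acidic methanol stop, UPLC-MS looked for the mass of the N-caprinoyl product.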

[2] = Analysis of ATP dependency of acylamino acid synthetase; settings: for signal of molecular weight corresponding to N-caprinoyl amino acid: in the absence of ATP; for N-caprinoylamino acid detected: in the presence of ATP (10 mM), UV 210 nm
Description: 0.25 mL of a reaction solution containing 50 mM Tris-HCl, 5 mM amino acid, 5 mM sodium caprate, 10 mM or 0 mM ATP, 10 mM MgCl2, 1 mM DTT, 50 μg of the purified enzyme, pH 8.0 was incubated at 25° C. for 24 hours. As the amino acid, L-Asp and Gly were used in AtGH3-6 and CfHP, respectively. After completion of the reaction, 0.8 mL of the reaction stop solution (1% (v/v) phosphoric acid, 75% (v/v) methanol) was added to 0.2 mL of the reaction solution, and the mixture was filtrated through the filter followed by being subjected to the UPLC-MS analysis to quantify a produced N-caprinoylamino acid by detection at UV 210 nm. The condition for the UPLC-MS analysis is as described in Example 2. As a result of the analysis, 3.8 mM and […] of the N-caprinoylamino acids were detected in AtGH3-6 and CfHP, respectively in the presence of ATP. However, in the absence of ATP, no signal of the molecular weight corresponding to the N-caprinoylamino acid was detected when any of AtGH3-6 and CfHP was used.

[3] = Synthesis of N-caprinoylamino acid using purified acylamino acid synthetase, UPLC-MS detection; parameters: key: +: Detected; −: Not detected; settings: +ATP
Method in brief: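 Purified enzyme (50 μg) with 5 mM amino acid, 5 mM sodium caprate, 10 mM ATP, 10 mM MgCl2, 1 mM DTT in Tris-HCl pH 8.0, 24 h at 25° C; product detected by UPLC-MS (ESI-negative) as the N-caprinoyl amino acid mass signal.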

[4] = substrates Carnosine and sodium caprate
[5] = substrates D-Ala and sodium caprate
[6] = substrates D-Asp and sodium caprate
[7] = substrates D-Cys and sodium caprate
[8] = substrates D-Glu and sodium caprate
[9] = substrates D-Ile and sodium caprate
[10] = substrates D-Lys and sodium caprate
[11] = substrates L-Asp-L-Phe and sodium caprate
[12] = substrates L-Gly-L-Gly and sodium caprate
[13] = substrates Sarcosine and sodium caprate
[14] = substrates Taurine and sodium caprate
[15] = substrates GABA and sodium caprate
[16] = substrates Gly and sodium caprate
[17] = substrates L-Ala and sodium caprate
[18] = substrates L-Arg and sodium caprate
[19] = substrates L-Asn and sodium caprate
[20] = substrates L-Asp and sodium caprate
[21] = substrates L-Cys and sodium caprate
[22] = substrates L-Gln and sodium caprate
[23] = substrates L-Glu and sodium caprate
[24] = substrates L-His and sodium caprate
[25] = substrates L-Ile and sodium caprate
[26] = substrates L-Leu and sodium caprate
[27] = substrates L-Lys and sodium caprate
[28] = substrates L-Met and sodium caprate
[29] = substrates L-Phe and sodium caprate
[30] = substrates L-Pro and sodium caprate
[31] = substrates L-Ser and sodium caprate
[32] = substrates L-Thr and sodium caprate
[33] = substrates L-Trp and sodium caprate
[34] = substrates L-Tyr and sodium caprate
[35] = substrates L-Val and sodium caprate
[36] = substrates β-Ala and sodium caprate

Molecule	signal of molecular weight corresponding to N-caprinoyl compound [1, 4]	signal of molecular weight corresponding to N-caprinoyl compound [1, 5]	signal of molecular weight corresponding to N-caprinoyl compound [1, 6]	signal of molecular weight corresponding to N-caprinoyl compound [1, 7]	signal of molecular weight corresponding to N-caprinoyl compound [1, 8]	signal of molecular weight corresponding to N-caprinoyl compound [1, 9]	signal of molecular weight corresponding to N-caprinoyl compound [1, 10]	signal of molecular weight corresponding to N-caprinoyl compound [1, 11]	signal of molecular weight corresponding to N-caprinoyl compound [1, 12]	signal of molecular weight corresponding to N-caprinoyl compound [1, 13]	signal of molecular weight corresponding to N-caprinoyl compound [1, 14]	signal of molecular weight corresponding to N-caprinoyl amino acid [3, 15]	signal of molecular weight corresponding to N-caprinoyl amino acid [3, 16]	signal of molecular weight corresponding to N-caprinoyl amino acid [3, 17]	signal of molecular weight corresponding to N-caprinoyl amino acid [3, 18]	signal of molecular weight corresponding to N-caprinoyl amino acid [3, 19]	signal of molecular weight corresponding to N-caprinoyl amino acid [3, 20]	signal of molecular weight corresponding to N-caprinoyl amino acid [3, 21]	signal of molecular weight corresponding to N-caprinoyl amino acid [3, 22]	signal of molecular weight corresponding to N-caprinoyl amino acid [3, 23]	also measured
AtGH3-6: indole-3-acetic acid-amido synthetase GH3.6 from Arabidopsis thaliana, expressed in E. coli with N-terminal His-tag (protein, listed as Arabidopsis thaliana, N-terminal His-tag, indole-3-acetic acid-amido synthetase GH3.6 from Arabidopsis thaliana, expressed in E. coli with N-terminal His-tag) MPEAPKIAALEVSDESLAEKNKNKLQFIEDVTTNADDVQRRVLEEILSRNADVEYLKRHGLEGRTDRETFKHIMPVVTYEDIQPEINRIANGDKSQVLCSNPISEFLTSSGTSGGERKLMPTIEEELDRRSLLYSLLMPVMDQFVPGLDKGKGMYFLFIKSESKTPGGLPARPVLTSYYKSSHFKNRPYDPYTNYTSPNQTILCSDSYQSMYSQMLCGLCQHKEVLRVGAVFASGFIRAIKFLEKHWPELARDIRTGTLSSEITDSSVREAVGEILKPDPKLADFVESECRKTSWQGIITRLWPNTKYVDVIVTGTMSQYIPTLDYYSNGLPLVCTMYASSECYFGVNLRPLCKPSEVSYTLIPNMAYFEFLPVHRNSGVTSSISLPKALTEKEQQELVDLVDVKLGQEYELVVTTYAGLYRYRVGDVLSVAGFKNNAPQFSFICRKNVVLSIDSDKTDEVELQNAVKNAVTHLVPFDASLSEYTSYADTSSIPGHYVLFWELCLNGNTPIPPSVFEDCCLTIEESLNSVYRQGRVSDKSIGPLEIKMVESGTFDKLMDYAISLGASINQYKTPRCVKFAPIIELLNSRVVDSYFSPKCPKWSPGHKQWGSN	+	+	+	+	+	+	+	+	+	+	+	+	+	+	+	+	+	+	+	+	signal of molecular weight corresponding to N-caprinoyl amino acid ([2]; L-Asp and sodium caprate): no signal; N-caprinoylamino acid detected ([2]; L-Asp and sodium caprate): 3.8 mM; signal of molecular weight corresponding to N-caprinoyl amino acid [3, 24]: +; signal of molecular weight corresponding to N-caprinoyl amino acid [3, 25]: +; signal of molecular weight corresponding to N-caprinoyl amino acid [3, 26]: +; signal of molecular weight corresponding to N-caprinoyl amino acid [3, 27]: +; signal of molecular weight corresponding to N-caprinoyl amino acid [3, 28]: +; signal of molecular weight corresponding to N-caprinoyl amino acid [3, 29]: +; signal of molecular weight corresponding to N-caprinoyl amino acid [3, 30]: +; signal of molecular weight corresponding to N-caprinoyl amino acid [3, 31]: +; signal of molecular weight corresponding to N-caprinoyl amino acid [3, 32]: +; signal of molecular weight corresponding to N-caprinoyl amino acid [3, 33]: +; signal of molecular weight corresponding to N-caprinoyl amino acid [3, 34]: +; signal of molecular weight corresponding to N-caprinoyl amino acid [3, 35]: +; signal of molecular weight corresponding to N-caprinoyl amino acid [3, 36]: +
CfHP: hypothetical protein from Cystobacter fuscus (GH3 protein), His-tagged (protein, listed as Cystobacter fuscus, His-tag, hypothetical protein from Cystobacter fuscus (GH3 protein), His-tagged) MQAAGRRDKQRFIEQTRHVARVNVDTLRAILQHNRDTDFGRRHGFASLRTVEDFQRALPVSTYEPFRPYMERIARGEQNVLTADRVEYLGITSGTTGQRKLLPVSRPHLENMRRTMMIGRAVVTEKVPAARRPSRGMILMNAVLRERSEGGLLTGALTAISTHSMGRAASFAFTSPPEAFRLRKHADALYLHLLFGLRERELGTLMAPFASGLLDMVHLLERRGADLVDDIARGVLRPELDLEPEQRRLLQSRLLPDPERAREVSQALEQGPHGLLRRLWPRLAYVSSITGASFSLYTRQLTPYLEGVPLSAASYVSTEGILGVPLELEQAVYCLMVGMAFFEFIPERELDAESPTTLLPEQLVEGEAYEVVLTTQAGLYRYRLGDVVRIVGRYHEAPLMEFLYRRGALLNLMGEKTSEHAARLALEQALATEGLLPADYSVVEETETLPGRYALFVELQEGARPQGAPEQLSRALEEALCRTNPFYEVIRRSERLGAAQLHRVEPGTFQALRDVLVQRGASPTQVKVPRVVRDAELQGLLRQRRVTG	+	+	+	+	+	+	+	+	+	+	+	+	+	+	+	+	+	+	+	+	signal of molecular weight corresponding to N-caprinoyl amino acid ([2]; Gly and sodium caprate): no signal; N-caprinoylamino acid detected ([2]; Gly and sodium caprate): 5.2 mM; signal of molecular weight corresponding to N-caprinoyl amino acid [3, 24]: +; signal of molecular weight corresponding to N-caprinoyl amino acid [3, 25]: +; signal of molecular weight corresponding to N-caprinoyl amino acid [3, 26]: +; signal of molecular weight corresponding to N-caprinoyl amino acid [3, 27]: +; signal of molecular weight corresponding to N-caprinoyl amino acid [3, 28]: +; signal of molecular weight corresponding to N-caprinoyl amino acid [3, 29]: +; signal of molecular weight corresponding to N-caprinoyl amino acid [3, 30]: +; signal of molecular weight corresponding to N-caprinoyl amino acid [3, 31]: +; signal of molecular weight corresponding to N-caprinoyl amino acid [3, 32]: +; signal of molecular weight corresponding to N-caprinoyl amino acid [3, 33]: +; signal of molecular weight corresponding to N-caprinoyl amino acid [3, 34]: +; signal of molecular weight corresponding to N-caprinoyl amino acid [3, 35]: +; signal of molecular weight corresponding to N-caprinoyl amino acid [3, 36]: +
